Assay: Screening of additives in denaturation/renaturation with SDS
Format: physicochemical
Protocol: Additives in de-/renaturation included the following. The effects of the following additives on denaturation and renaturation of BCA and BCA-Ac18 were screened: poly(ethelyneglycol) (PEG, MW=2000), 0.1 mM, 1 mM; poly(vinylpyrrolidone), MW=10 000, 1%, 10% w/v; 3-(3-cholamidopropyl)dimethylammoniopropane sulfonate (CHAPS), 1 mM; octanol, 1 mM; tetrabutylammonium thiocyanate, 100 mM; sodium thiocyanate, 100 mM, 1 M; sodium sulfate, 10 mM; betaine, 1 M; dimethyl sulfoxide (DMSO), 1%, 10% v/v; N-methylpyrrolidone, 1%, 10% v/v. The screening was performed in a 96-well plate format, using a SpectraMax Gemini XS spectrometer (Molecular Devices), with a protein concentration of 100 nM, a DNSA concentration of 10 micromolar (present in the denaturation/renaturation buffers), and variable concentrations of SDS.
In some experiments, various additives were used to prevent aggregation of BCA and BCA-Ac18. These additives were commonly used to prevent aggregation of carbonic anhydrases and other proteins. The additives included polymers (PEG), other surfactants (CHAPS), “salting-in” Hofmeister salts (tetrabutylammonium thiocyanate and sodium thiocyanate), osmolytes (betaine), and organic solvents (dimethyl sulfoxide and N-methylpyrrolidone). […] For example, in 10% DMSO, it was observed that refolding of BCA up to 1.2 mM SDS (vs. 0.7 mM SDS without a cosolvent), but unfolding up to 2.5 mM SDS was not observed.

With bovine carbonic anhydrase II [BCA] as the substance, how does the “highest SDS concentration at which refolding was observed” value (1 mM CHAPS) read?
Its value is “up to 1.8 mM”.

What about the “SDS concentration needed for unfolding” value (1 mM CHAPS, unfolding did not occur below this concentration) of the same substance?
Its value is at least 2.5 mM.

What about the “highest SDS concentration at which refolding was observed” value (10% DMSO) of the same substance?
The value was “up to 1.2 mM”.

What about the “SDS concentration needed for unfolding” value (10% DMSO, unfolding up to this concentration not observed) of the same substance?
Its value is over 2.5 mM.

What about the “highest SDS concentration at which refolding was observed” value (without a cosolvent) of the same substance?
Its value is at most 0.7 mM.

Source: US20080113421A1, “Stabilizing proteins against denaturation and inactivation by charged detergents using chemical modifications, including modifications that increase net charge” (President and Fellows of Harvard College, priority 2006, published 2008)
